Assay: soluble fraction after stress (log2 fold change); higher = more stays soluble; pooled small domains, quantitative proteomics
Details: stress: pH 4
How it was run: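 Small protein domains from pooled custom libraries were exposed to pH 4, then quantified with high-throughput quantitative proteomics. The fold change in how much of each domain remains soluble is read as aggregation propensity. It is given as log2, with higher values meaning more stayed soluble.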

Row | Sequence | soluble fraction (log2)
1 | HMFDENVKLIENEYDVSIISRGSELKVMGDVENVDKAARALRSMLAMINKGESLTEQNVRYVLTLVNEGNE | -1.38
2 | HMHSIFPVIRSTSFPTKSNDGELFITSDHTAETRIYYALDLGNTYRLIDQKVMNEINLTESLVKETARF | -1.63
3 | HMGAIVTGTVVEIRSDVVIVNAGLKSEGVVPIEQFRNEAGELEVSVGDEVKVALDALEDGFGETRLS | -1.97
4 | HMTLPEKSKRLFSQDDFWDQIFYRIGEGQSLREVSKYYKIPYTTIHDRIHSDEGIKLKYLEALTS | -0.592
5 | HMTKTEFLEALRRALNGNMAAASVEDNLKFYENYFYSEEAKGRSEAAVLSELGDPRILARTLIDAAER | -0.816
6 | HMVGDMLTQKDSEGLTAYLYQQGIISQREMLLLNGILKDRVLTGMEKGQRDSVRASMVQHLLAMLNMM | -1.55
7 | HMGDWEDFWEKEARRRKLSLDYQVVRSLSRWSREYDWGEEDVEQFLSQFPEGETVKMEDVELYFE | -1.41
8 | HMDYADISYKIFMNHIKNGQVERVELSGDPRIMGKLKDGTYFVTDNPRTENFKEFLLLNNVQVIETN | -0.772
9 | HMQEDKVRKLTEMGFAEDQAREALRKHDWDETMALNSL | -0.244
10 | HMHSILDDIEGIGPARRKALMRHYMNLDAIKSATVEELAAVPSMNEKSAKAVHNFFHQQKKD | 0.22
11 | HMNKWMQLASEEDKKLFNEAPKEIQDSITESAKFFDIRTKADVDTFWANTGLRQMKQQAMLNESFVNEY | -0.482
12 | HMEVFGDTKEEQMIIDILKLGITDLEHLQAKSMLEPAIFSQTLTMLEISGKIRPLGAGHWTL | -1.49
13 | HMNNFTPEHLEKDIEGSLFFRRLKETAREEPGSLTVAQKDFIQMWHDQADGVYTLRQVFVQTAFDHVRSL | 0.22
14 | HMSHGFFELKTTQKEALIKLLDSHPNFTHTKTEADLTTAFLKLPMDAEQFNKLLFTNGIVLSHLVKRK | -0.276
15 | HMSVKLYPNPTRSVTTFATDVDKWYLYDNQGKLVSEGNTKTIDVTAFPVGIYFVKTIKGNNSTFVKLIV | -0.183
16 | HMLSVRQRMGELLERLADGQFHRFESLFTVEEGKLGVVVTFLGLLTLAKEQLLDIVQEGPTAPIYVKSLA | 0.0784
17 | HMETVVTEVKTTDVVNIRTSDSETADKLSKAAIGDTFPLLEERGNGWSKVAYNGEEAFIKSDYLEPSKTE | -0.654
18 | HMDAAEVEATARAMLRRSALNLLAQREQTAFELKQKLSRRFPEQAALLDEVIERLQEQGLQDDTR | -0.527
19 | HMITANNYFNEVERIGVETLPETLRKGHDLVVRSTNSGTNWSNYQNNESIRKVIDLYLQKLNEYVSTST | -0.676
20 | HMKTEKYIQVISGTVNVRSGPGTSYAEIAKIDASQIYVVTAKEGEWLKISLANGTIGYVAGWLVKEVTG | -0.331
21 | HMTSVQDLLRNGDRVGYQNGSTVKYWLEEMGFHKKDLLGYVTVEEYAEALQRGSGNGGVSAIVD | -1.7
22 | HMEFEYFQLRDHLYNLIMHPDKEKLKKDPDYLKLMSMAFSLLEDQNVGKDILEIAIKSIENFK | -0.674
23 | HMKKAITMGDIITVKELSEKIGIQVAEIIKKLMGLGILATINKELDYDTANVIASEFHIELERK | 0.0872
24 | HMNSILFAITKEGGVVYGGKPVGVNGVRPLVRRLLQSEEMPVILQVDEKADAGLVIRVIDESKLGGASKV | -0.196
25 | HMGAQINSPISGTILKYLVKNGDKITKDQPLVNIESMKMENTIKSDKEGIVNNINFKIGDSVNTADTLLTL | 0.22

Row | Sequence | soluble fraction (log2)
26 | HMYTVQQLARLAGITPRTLRHYDAIGLLKPTRVGENGYRYYGSEALLRLQSILLYRELDMPLEDIRRVLDS | -1.23
27 | HMVFQTAAEKAYEIISKKIMKGEYEPGMRLVRRQLAQELGVSPIPILEAMKRLEQDGLIEYKAHWGSIVTI | -0.56
28 | HMADFIKEIKTNNPRQLLKSILSSFMPRALILELEMLLWNDLKSKPIGEWSNTQIENVGKLLNNWILKPAA | 0.164
29 | HMSLLQDRQRHEALAALGYYRGSVSAAWGAASVEALKAAQAALGVEVDGKWGPKTEDVIQAALGT | -0.453
30 | HMSVFGDNVARLRAEHGMSQRALAERLEITNGTVAAWESRDTLPDYDRIRQIAEIFDVPIPQLFAKYIP | -1.2
31 | HMLIGLNETESLVLDALIANPMRIDQVSAMLKKDVATTLKFLGGLSVRGLVETLFGGRFAPTKIALHARS | -0.247
32 | HMGISEKVINIIETYTMIARKKYPSVKSLAEHFNVSERTVHRYLEIIKMIDVVDYDREKKGYFFPYGDR | -0.462
33 | HMDLMKKTLTKEMLLIDFMKQQFPDSSTNKLRKMLSSGRVKINNLITHKAKSQLKLGDIFELANKPHD | 0.124
34 | HMSRAMFEMHADWQPTDSIRGLLGRAGLPTDIAKLDQSRIGDFVNHWFGKPDRNTADSWNGLLVGWLKRTQ | -0.787
35 | HMIGVIVDEVDPDSSLKSGDIITEVNREVILNIDDFVGLVEQIQKTGRSSLLLKILRDKKSLWVTIQFV | 0.22
36 | HMVKTANVAYSEFLKLVESDNISDVSIVGRTITGHLDDGTKFSTYTPPNDPSLIDKLTRKNVIIKSAPE | 0.181
37 | HMSQITEADYIPNTDKTWGELMEETGESLPNLVERYNNEMTKSNGKEQPQSIIQRIIEDYQMVS | -0.0864
38 | HMNTELFTKNLFNKLEVLLGEKNWKSKTAQLLNISSDAFYKKIRNESQLNLHELLLIKDTFKISIDALLDE | -0.929
39 | HMRAAEPTTDAQRDRRRRIVLTAMTMLQERGYDEIQMRDVAQQAGVALGTLYRYFPSKEQLFAHVLVE | -0.68
40 | HMSLAISGRNQLHGIIEEVRSDGLLSQIYLRVGDQVLTAVITRDAVAELKLKRGDTAVAIMKSTEVMIARE | 0.0191
41 | HMELLSGTVEKVLTSGVLVKLPGGAIGFIPNSEMGTPRGTNHGKMFPAGTPLQVMVVEVNQDRGRITLSR | -0.389
42 | HMRTMRHLSVPRQETQQILSQLKAEFALPQGARVQPDPSDSKRTLIPVKEGAESELLSRYPVVHAEP | 0.11
43 | HMNMPHEIDANFISSLGRLIDNHGKNYGDFQIFREMFLDYFPRFDELSSNNKEKINRRLYKFFETLFG | -1.44
44 | HMQGTTTELLIQKSALYEELNDPEKALNAMFDAFEMDSLNVNVLHRIVSLLLDKEENEKAILYNQLIIDH | -0.507
45 | HMKYEFEFPYWSNKEAKHMIVTINYPNGTRATASIQDNDGSNPDYKRIMEEFGEEQIDANTEEGLKRR | -0.816
46 | HMTITPEVIVNHFKNLDLFFTKNGNYYEFKKKGTENILFKYGIYKQKPNIFVKIQRYPISSLSDLERIPI | -0.159
47 | HMVIMDLIVNGEPKYVVGEQLHLILDELGYSGKHFVVELNGEILSKEAYTTTKLTAADRLEIVSFVGG | -1.72
48 | HMPQVALAIDEMKRELASPDIVKTLLATTFKGLSEVNMRQAMLDGMIQGHTIADFFKKDVYAIPFGSGYSL | -0.0951
49 | HMSKKLLVLQTSDDAKAKDVLSQNGYQLDDGDKLSIIETEQTKMADVIKLLSDNAIDIEDVQHVH | -0.116
50 | HMVMETLAERINTALQTKGLSVNALARRVGVSYPAMRKITKGETLNPKFLFEIAEALGVSVEWLKTGEGSP | 0.0978

Row | Sequence | soluble fraction (log2)
51 | HMRYNPETTAGRRGLIIKMLDEYGQVNVNELSRYFNVSEVTVRNDLAYLERKNLLIRARGGAIKTE | 0.0289
52 | HMSDLQTGDINQDGTVDEKDLSLLHSYNLELIKTISNAADLNEDGVINGLDEAYLKRLFLQNSDP | -0.142
53 | HMDVQGFVMDLDKPLDKEPIVEGFELKLEDSLTLVAAVNKDKSINSLFDELSKLGIKVKSMRNPP | -2.11
54 | HMHFENEETFVLPLVREGFSEQQQLEMVDRLLFDANTDNPRWIIDWMASELPSTQRELLLDLEKRLAEVRS | -0.358
55 | HMDLTPEEQMDLYRLLDSLPTEERTYLILHYFEERSFPEMAEILSMPEAKLKSRFYRILHRLRAHL | -1.11
56 | HMSASIAEGTVIMLENTTNIRSGMSEDSSKVGTAYAGEKVTVVMSYAEGWTKVKWNGETGYIKTALLQL | -0.405
57 | HMLPIMDRLITAGISINTAKKWVDKFGDKRIKQNLAYSLAKQKEGKVKTNFVGYLAKAIEEDWGSGWE | ≥ 0.43
58 | HMATFTPYLVRITASVLNIRKGPGTTYAVTGQIKDRGVYTIVEQKGNWGRLKSGAGWISLSYTKK | 0.065
59 | HMGKGVDKIMKMADDYSYGKIAGKTVDVMTAKLFQAAYNKAPQKAKDKVDKMNEKQLYIFMMNLWKRF | 0.0998
60 | HMIKEGDLVFIWNPKKGDSFLIKVQPGQSQGTHFGQIKHSEIMEHNYGEGIRTPKGQVYYLLRPTLGEFTR | -0.38
61 | HMQASIPQSQKDALAKELQALPPHGRNRVLSTFRQQFNISSEKISEFITTPEHLSFIRSKIAEVESDS | -0.529
62 | HMIEIKNLSFSYGKKKQSVFNDFSLTLDKGSVYGLLGKNGTGKSTLLYLMTGLLRPQAGQVLYKGVDVS | 0.159
63 | HMTGESIPFSKFLSEVDSGRVINVEIQGNNISGLLSDGNKFKTYSPNYPNLVEILSEKEVSIVATPLE | -0.166
64 | HMKYSELLLEIILQSKEHPTAEQIFIEAKKRNPKIVQATVYNNLKNLLAQGRVIRISNPGQPDRYDNT | 0.0505
65 | HMSETEWGEIYRKVMAAGLIPARSVRERLLALPSIEPLLQAAEAAGSKGMLDETLLDSLLSKT | -0.539
66 | HMNDPNAPITENQLKAIHVLLDKLKVDDNLKHAYIADVLQLDNEPETLKTLTKAQGSMAIERMQLLKDN | -0.42
67 | HMDTIVHFLSDGRRITVRIKRNARKNIILRPMAADAVSATIPPWLGRRQLSAWLSEREDLLLSVLSRAA | -0.736
68 | HMAPPPLAGAREALREQIRRGSLSARRGFDAYADALGLPAGTRGAHPIFAALQRLDYPQALRLLDQEPT | -0.108
69 | HMLNQIGVSQKEFDQIHTAIKIALKTSSLTPTGITEKLPKFPPEKTADILRWMADNKEVLLNSEEKYELKT | 0.0247
70 | HMKDIIVLGAIQAGIKKFDKIQKMTQIEPEELNSILEQLENRGFIQVAEKSGLLGKKIEILVTEKGSNEVD | -0.484
71 | HMEFDTEFVLRQAMHAFMQYGYAKTSMQKLKEATHLHPGSIYAAYGNKKGLFLAATEQYQKDR | -0.101
72 | HMETKERDEQFLEMIRQNEGIIFKVASFYVDKEHPIGDLYQEVVLNLWKGYPSFRGESKYSTWIYRIALNT | -0.504
73 | HMLKPKDLHLGDSVRVLSLNLKGTVSSLPDTKGFLFVQMGIMRSKLHISDLQLIDEPVITAP | -0.314
74 | HMIKEVGYEKFMQMTEEEDIGRVEIDQEENQITFTDKDETAIYKTGMVDDPDLTERLYDAGAEFS | -0.591
75 | HMDNMFMPPVNGWDVRQALQKLQNEMGLQVKMEYSPSETITEGYVISYTPIDGMKVEKGDEVTLVISTGPE | -0.675
